Measurements: patent US6451528B1, “Sperm-specific AKAP protein genes and uses” (Oregon Health & Sciences University, priority 1999, dated 2002)

Molecular target: T1, RIIα binding to AKAP110 (Mus musculus, UniProt P12367)
T1 construct: made in house; host or cells: E. coli
Assay: RII overlay binding assay with 32P-labeled RIIα
Conditions: peptide included in the binding assay at a concentration of 1 μM; results in FIG. 4D
Procedure: The identity of AKAP110 in the extracts prepared as described above was determine using an RII overlay assay. This assay was based on previous experiments which had shown that PKA anchoring proteins could be specifically detected after electrophoretic separation by overlay with labeled RII subunit of mammalian PKA (see Vijayaraghavan et al., 1997, J. Biol. Chem. 272; 4747-4752). These assays were performed as follows. Polyacrylamide gel electrophoresis containing sodium dodecyl sulfate (SDS/PAGE) was performed as described in Johnson et al. (1997, Devel. Biol. 192: 340-350) and Visconti et al. (1997, Devel. Biol. 192: 351-363). Approximately […] protein per lane was loaded on a 10% gel and electrophoresed overnight at a constant current of 8mA. After electrophoresis, protein bands were transferred to Immobilon P (polyvinylidene difluoride, obtained from Millipore, Bedford, Mass.) as described in the Johnson and Visconti references. […]
The conserved regions of sequence are expected to correspond to functional domains. The portion of the sequence corresponding to the RII binding domain was determined using an RII overlay assay as follows. […] This blot was then hybridized with ^32P-labeled RIIα (results shown in FIG. 4A) or with horse radish peroxidase-conjugated S-protein that detects an S-tag expressed as a fusion protein by the pET30A vector (results shown in FIG. 4B). […]

T1 sequence (P12367 2-401 limits assumed): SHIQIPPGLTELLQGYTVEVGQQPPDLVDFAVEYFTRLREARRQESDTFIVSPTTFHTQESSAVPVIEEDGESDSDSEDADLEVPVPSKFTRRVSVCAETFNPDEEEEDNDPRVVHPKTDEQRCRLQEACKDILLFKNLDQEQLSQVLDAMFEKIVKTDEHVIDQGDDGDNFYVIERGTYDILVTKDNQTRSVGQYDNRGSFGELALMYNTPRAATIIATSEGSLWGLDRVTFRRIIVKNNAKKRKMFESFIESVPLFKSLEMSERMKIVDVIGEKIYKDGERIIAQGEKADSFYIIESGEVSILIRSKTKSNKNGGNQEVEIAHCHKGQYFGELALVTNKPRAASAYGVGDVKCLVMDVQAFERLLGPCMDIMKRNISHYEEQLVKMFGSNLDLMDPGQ

SFYANRLTNLVI (listed as Mus musculus)
radiolabeled RIIα binding: prevent radiolabeled RIIα binding
